Test results: US20150344570A1 (published 2015)

T1: FcγRIIb extracellular domain with C-terminal His tag (human, UniProt P31994 43-217)
T1 construct: extracellular domain; also called FcgRIIb; 2b; not shown: His tag at the C terminus
T1 sequence (looked up): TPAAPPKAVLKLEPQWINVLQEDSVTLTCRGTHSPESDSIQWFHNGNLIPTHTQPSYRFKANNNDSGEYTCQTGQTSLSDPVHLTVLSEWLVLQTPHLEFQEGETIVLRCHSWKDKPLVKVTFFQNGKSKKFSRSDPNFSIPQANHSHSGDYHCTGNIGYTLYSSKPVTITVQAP

B1: GpH7-A5/GpH7-B3 variant K326_07I/GpL16-k0 (antibody, human IgG1, kappa)
heavy 1: not shown
heavy 2: not shown
light: DIVMTQSPLSLPVTPGEPASISCQASESLVHSNRNTYLHWYLQKPGQSPQLLIYKVSNRFSGVPDRFSGSGSGTDFTLKISRVEAEDVGVYYCSQNTHVPPTFGQGTKVEIERTVAAPSVFIFPPSDEQLKSGTASVVCLLNNFYPREAKVQWKVDNALQSGNSQESVTEQDSKDSTYSLSSTLTLSKADYEKHKVYACEVTHQGLSSPVTKSFNRGEC
notes: also called He Ab K326_07I
B2: GpH7-A5/GpH7-B3 variant I332_14T/GpL16-k0 (antibody, human IgG1, kappa)
heavy 1: not shown
heavy 2: not shown
light: B1 light
notes: also called He Ab I332_14T
B3: GpH7-A5/GpH7-B3 variant L328_02A/GpL16-k0 (antibody, human IgG1, kappa)
heavy 1: not shown
heavy 2: not shown
light: B1 light
notes: also called He Ab L328_02A
B4: GpH7-A5/GpH7-B3 variant K326_10E/GpL16-k0 (antibody, human IgG1, kappa)
heavy 1: not shown
heavy 2: not shown
light: B1 light
notes: also called He Ab K326_10E
B5: GpH7-A5/GpH7-B3 variant L235_20W/GpL16-k0 (antibody, human IgG1, kappa)
heavy 1: not shown
heavy 2: not shown
light: B1 light
notes: also called He Ab L235_20W
B6: GpH7-A5/GpH7-B3 variant A330_01G/GpL16-k0 (antibody, human IgG1, kappa)
heavy 1: not shown
heavy 2: not shown
light: B1 light
notes: also called He Ab A330_01G
B7: GpH7-A5/GpH7-B3 variant I332_06M/GpL16-k0 (antibody, human IgG1, kappa)
heavy 1: not shown
heavy 2: not shown
light: B1 light
notes: also called He Ab I332_06M
B8: GpH7-A5/GpH7-B3 variant P238_09D/GpL16-k0 (antibody, human IgG1, kappa)
heavy 1: not shown
heavy 2: not shown
light: B1 light
notes: also called He Ab P238_09D
B9: GpH7-A5/GpH7-B3 variant I336_08L/GpL16-k0 (antibody, human IgG1, kappa)
heavy 1: not shown
heavy 2: not shown
light: B1 light
notes: also called He Ab I336_08L
B10: GpH7-A5/GpH7-B3 variant K334_10E/GpL16-k0 (antibody, human IgG1, kappa)
heavy 1: not shown
heavy 2: not shown
light: B1 light
notes: also called He Ab K334_10E
B11: GpH7-A5/GpH7-B3 variant G237_04F/GpL16-k0 (antibody, human IgG1, kappa)
heavy 1: not shown
heavy 2: not shown
light: B1 light
notes: also called He Ab G237_04F
B12: GpH7-A5/GpH7-B3 variant H268_18N/GpL16-k0 (antibody, human IgG1, kappa)
heavy 1: not shown
heavy 2: not shown
light: B1 light
notes: also called He Ab H268_18N
B13: GpH7-A5/GpH7-B3 variant K326_16H/GpL16-k0 (antibody, human IgG1, kappa)
heavy 1: not shown
heavy 2: not shown
light: B1 light
notes: also called He Ab K326_16H
B14: GpH7-A5/GpH7-B3 variant I332_04F/GpL16-k0 (antibody, human IgG1, kappa)
heavy 1: not shown
heavy 2: not shown
light: B1 light
notes: also called He Ab I332_04F
B15: GpH7-A5/GpH7-B3 variant H268_09D/GpL16-k0 (antibody, human IgG1, kappa)
heavy 1: not shown
heavy 2: not shown
light: B1 light
notes: also called He Ab H268_09D
B16: GpH7-A5/GpH7-B3 variant K334_02A/GpL16-k0 (antibody, human IgG1, kappa)
heavy 1: not shown
heavy 2: not shown
light: B1 light
notes: also called He Ab K334_02A
B17: GpH7-A5/GpH7-B3 variant P331_15Y/GpL16-k0 (antibody, human IgG1, kappa)
heavy 1: not shown
heavy 2: not shown
light: B1 light
notes: also called He Ab P331_15Y
B18: GpH7-A5/GpH7-B3 variant K326_19Q/GpL16-k0 (antibody, human IgG1, kappa)
heavy 1: not shown
heavy 2: not shown
light: B1 light
notes: also called He Ab K326_19Q
B19: GpH7-A5/GpH7-B3 variant K326_04F/GpL16-k0 (antibody, human IgG1, kappa)
heavy 1: not shown
heavy 2: not shown
light: B1 light
notes: also called He Ab K326_04F
B20: GpH7-A5/GpH7-B3 variant P331_20W/GpL16-k0 (antibody, human IgG1, kappa)
heavy 1: not shown
heavy 2: not shown
light: B1 light
notes: also called He Ab P331_20W
B21: GpH7-A5/GpH7-B3 variant A327_09D/GpL16-k0 (antibody, human IgG1, kappa)
heavy 1: not shown
heavy 2: not shown
light: B1 light
notes: also called He Ab A327_09D
B22: GpH7-A5/GpH7-B3 variant K334_05P/GpL16-k0 (antibody, human IgG1, kappa)
heavy 1: not shown
heavy 2: not shown
light: B1 light
notes: also called He Ab K334_05P
B23: GpH7-A5/GpH7-B3 variant K326_14T/GpL16-k0 (antibody, human IgG1, kappa)
heavy 1: not shown
heavy 2: not shown
light: B1 light
notes: also called He Ab K326_14T
B24: GpH7-A5/GpH7-B3 variant K326_06M/GpL16-k0 (antibody, human IgG1, kappa)
heavy 1: not shown
heavy 2: not shown
light: B1 light
notes: also called He Ab K326_06M
B25: GpH7-A5/GpH7-B3 variant K326_03V/GpL16-k0 (antibody, human IgG1, kappa)
heavy 1: not shown
heavy 2: not shown
light: B1 light
notes: also called He Ab K326_03V
B26: GpH7-A5/GpH7-B3 variant S267_06M/GpL16-k0 (antibody, human IgG1, kappa)
heavy 1: not shown
heavy 2: not shown
light: B1 light
notes: also called He Ab S267_06M
B27: GpH7-A5/GpH7-B3 variant S239_10E/GpL16-k0 (antibody, human IgG1, kappa)
heavy 1: not shown
heavy 2: not shown
light: B1 light
notes: also called He Ab S239_10E
B28: GpH7-A5/GpH7-B3 variant I332_15Y/GpL16-k0 (antibody, human IgG1, kappa)
heavy 1: not shown
heavy 2: not shown
light: B1 light
notes: also called He Ab I332_15Y

Target: T1, FcγRIIb extracellular domain with …
Experiment: SPR, relative binding, HeCon Ab = 100
Protocol: Analysis of interaction between objective antibody and the FcγR was carried out using Biacore T100 (GE Healthcare). HBS-EP+ (GE Healthcare) was used as the running buffer, and the measurement temperature was set to 25° C. Chips produced by immobilizing the antigen peptide by the amine coupling method to a Series S Sencor Chip CM5 (GE Healthcare), or alternatively, chips produced by allowing preliminarily biotinylated antigen peptides to interact with and immobilize onto a Series S Sensor Chip SA (certified) (GE Healthcare) were used. Antibodies of interest were captured onto an antigen peptide-immobilized chip, and allowed to interact to each FcγR diluted with running buffer. To regenerate and repeatedly use the chip, the antibodies captured on the chip were washed off by reacting 10 mM glycine-HCl, pH 1.5.

| He/Con_2b | Binder |
| --- | --- |
| 199 % of control | B1 |
| 106 % of control | B2 |
| 144 % of control | B3 |
| 200 % of control | B4 |
| 147 % of control | B5 |
| 104 % of control | B6 |
| 105 % of control | B7 |
| 221 % of control | B8 |
| 107 % of control | B9 |
| 114 % of control | B10 |
| 149 % of control | B11 |
| 156 % of control | B12 |
| 119 % of control | B13 |
| 104 % of control | B14 |
| 239 % of control | B15 |
| 108 % of control | B16 |
| 114 % of control | B17 |
| 139 % of control | B18 |
| 155 % of control | B19 |
| 111 % of control | B20 |
| 172 % of control | B21 |
| 105 % of control | B22 |
| 150 % of control | B23 |
| 165 % of control | B24 |
| 175 % of control | B25 |
| 210 % of control | B26 |
| 181 % of control | B27 |
| 101 % of control | B28 |
